US20210205403A1 (RESEARCH FOUNDATION FOR THE STATE UNIVERSITY OF NEW YORK, published 2021)

Biological target: HDM-2 in the cancer cell membrane (human, UniProt Q00987 1-491)
Test: cell-based or functional assay

Chain of HDM-2 in the cancer cell membrane (Q00987 whole entry): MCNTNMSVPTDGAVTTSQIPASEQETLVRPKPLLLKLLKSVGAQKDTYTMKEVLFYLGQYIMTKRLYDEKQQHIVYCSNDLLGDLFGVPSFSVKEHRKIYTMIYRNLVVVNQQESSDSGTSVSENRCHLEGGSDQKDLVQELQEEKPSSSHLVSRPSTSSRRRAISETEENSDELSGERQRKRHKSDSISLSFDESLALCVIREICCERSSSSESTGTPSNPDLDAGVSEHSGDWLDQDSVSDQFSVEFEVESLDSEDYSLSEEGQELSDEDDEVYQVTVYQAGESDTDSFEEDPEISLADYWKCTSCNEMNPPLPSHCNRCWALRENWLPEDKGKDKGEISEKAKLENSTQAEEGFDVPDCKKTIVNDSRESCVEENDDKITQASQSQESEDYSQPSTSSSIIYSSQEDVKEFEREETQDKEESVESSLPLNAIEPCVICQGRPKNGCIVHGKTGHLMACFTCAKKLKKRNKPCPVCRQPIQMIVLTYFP

IC50 (dose of PNC-27 on cancer cells): 125 µg/mL
Binder: PPLSQETFSDLWKLLKKWKMRRNQFWVKVQRG [PNC-27 (p53 aa12-26-MRP)]
